Data reported in patent US20100260668A1 (published 2010).

T1: PlGF (UniProt P49763-2 21-149, limits assumed)
T1 construct: bought antigen coated on the ELISA plate; also called Placental GF
T1 sequence (looked up): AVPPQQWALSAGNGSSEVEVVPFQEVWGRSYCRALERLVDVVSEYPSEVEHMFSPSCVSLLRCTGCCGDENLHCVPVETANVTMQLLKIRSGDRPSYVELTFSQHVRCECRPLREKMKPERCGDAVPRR

B1: DVD470 (bispecific antibody, human IgG1, kappa)
heavy: not shown
light: DIQMTQSPSSLSASVGDRVTITCSASQDISNYLNWYQQKPGKAPKVLIYFTSSLHSGVPSRFSGSGSGTDFTLTISSLQPEDFATYYCQQYSTVPWTFGQGTKVEIKRTVAAPSVFIFPPDIQMTQSPSSLSASVGDRVTITCRASQDVSTAVAWYQQKPGKAPKLLIYSASFLYSGVPSRFSGSGSGTDFTLTISSLQPEDFATTYYCQQSYTGTVTFGQGTKVEIKRTVAAPSVFIFPPSDEQLKSGTASVVCLLNNFYPREAKVQWKVDNALQSGNSQESVTEQDSKDSTYSLSSTLTLSKADYEKHKVYACEVTHQGLSSPVTKSFNRGEC
B2: DVD476 (bispecific antibody, human IgG1, kappa)
heavy: not shown
light: DIQMTQSPSSLSASVGDRVTITCSASQDISNYLNWYQQKPGKAPKVLIYFTSSLHSGVPSRFSGSGSGTDFTLTISSLQPEDFATYYCQQYSTVPWTFGQGTKVEIKRTVAAPDIQMTQSPSSLSASVGDRVTITCRASQDVSTAVAWYQQKPGKAPKLLIYSASFLYSGVPSRFSGSGSGTDFTLTISSLQPEDFATTYYCQQSYTGTVTFGQGTKVEIKRTVAAPSVFIFPPSDEQLKSGTASVVCLLNNFYPREAKVQWKVDNALQSGNSQESVTEQDSKDSTYSLSSTLTLSKADYEKHKVYACEVTHQGLSSPVTKSFNRGEC
B3: AB012 (antibody, human IgG1, kappa, V domains shown)
VH: QVQLVESGGGLVKPGGSLRLSCAASGFTFSDYYMSWIRQAPGKGLEWVSYISSSGSTIYYADSVKGRFTISRDNAKNSLYLQMNSLRAEDTAVYYCARDEYNSGWYVLFDYWGQGTLVTVSS
VL: DIQMTQSPSSVSASVGDRVTITCRASQGISSWLAWYQQKPGKAPNLLIYEASSLQSGVPSRFGGSGSGTDFTLTISSLQPEDFATYYCQQANGFPWTFGQGTKVEIKR
B4: DVD034 (bispecific antibody, human IgG1, kappa)
heavy: not shown
light: DIQMTQSPSSVSASVGDRVTITCRASQGISSWLAWYQQKPGKAPNLLIYEASSLQSGVPSRFGGSGSGTDFTLTISSLQPEDFATYYCQQANGFPWTFGQGTKVEIKRTVAAPDVVMTQSPLSLPVTPGEPASISCRSSQSLLHSNGFNYVDWYLQKPGQSPHLLIYFGSYRASGVPDRFSGSGSGTDFTLKISRVEAEDVGVYYCMQALQTPPWTFGQGTKVEIRRTVAAPSVFIFPPSDEQLKSGTASVVCLLNNFYPREAKVQWKVDNALQSGNSQESVTEQDSKDSTYSLSSTLTLSKADYEKHKVYACEVTHQGLSSPVTKSFNRGEC
notes: N-terminal VD HGF, C-terminal VD RON; also called DVD034H; DVD034L
B5: DVD568 (bispecific antibody, human IgG1, kappa)
heavy: not shown
light: DIQMTQSPSSLSASVGDRVTITCRASQDVSTAVAWYQQKPGKAPKLLIYSASFLYSGVPSRFSGSGSGTDFTLTISSLQPEDFATYYCQQSYTTPPTFGQGTKVEIKRTVAAPSVFIFPPAIQMTQSSSSFSVSLGDRVTITCKASEDIYNRFAWYQQKPGNAPRLLISGAASLEAGVPSRFSGSGSGQDYTLSITSLQTEDVATYYCQQYWSTPWTFGGGTKLEIKRTVAAPSVFIFPPSDEQLKSGTASVVCLLNNFYPREAKVQWKVDNALQSGNSQESVTEQDSKDSTYSLSSTLTLSKADYEKHKVYACEVTHQGLSSPVTKSFNRGEC
notes: HC linker short, LC linker long; also called DVD-Ig DVD568
B6: DVD570 (bispecific antibody, human IgG1, kappa)
heavy: not shown
light: DIQMTQSPSSLSASVGDRVTITCRASQVIRRSLAWYQQKPGKAPKLLIYAASNLASGVPSRFSGSGSGTDFTLTISSLQPEDFATYYCQQSNTSPLTFGQGTKVEIKRTVAAPSVFIFPPAIQMTQSSSSFSVSLGDRVTITCKASEDIYNRFAWYQQKPGNAPRLLISGAASLEAGVPSRFSGSGSGQDYTLSITSLQTEDVATYYCQQYWSTPWTFGGGTKLEIKRTVAAPSVFIFPPSDEQLKSGTASVVCLLNNFYPREAKVQWKVDNALQSGNSQESVTEQDSKDSTYSLSSTLTLSKADYEKHKVYACEVTHQGLSSPVTKSFNRGEC
notes: outer AB071 (VEGF), inner AB074 (PlGF); HC linker short, LC linker long; also called DVD-Ig DVD570

How the values were obtained:
[1] = target: recombinant human VEGF165 (human, UniProt P15692-4 27-191); assay: cell-based or functional assay
[2] = target: T2, HGF (UniProt P14210 32-728); assay: Biacore SPR
T2 construct: Bought reagent
Protocol: The BIACORE assay (Biacore, Inc, Piscataway, N.J.) determines the affinity of antibodies or DVD-Ig with kinetic measurements of on-rate and off-rate constants. Binding of antibodies or DVD-Ig to a target antigen (for example, a purified recombinant target antigen) is determined by surface plasmon resonance-based measurements with a Biacore® 1000 or 3000 instrument (Biacore® AB, Uppsala, Sweden) using running HBS-EP (10 mM HEPES [pH 7.4], 150 mM NaCl, 3 mM EDTA, and 0.005% surfactant P20) at 25° C. […] For example, approximately 5000 RU of goat anti-mouse IgG, (Fcγ), fragment specific polyclonal antibody (Pierce Biotechnology Inc, Rockford, Ill.) diluted in 10 mM sodium acetate (pH 4.5) is directly immobilized across a CM5 research grade biosensor chip using a standard amine coupling kit according to manufacturer's instructions and procedures at 25 μg/ml. Unreacted moieties on the biosensor surface are blocked with ethanolamine. Modified carboxymethyl dextran surface in flowcell 2 and 4 is used as a reaction surface. Unmodified carboxymethyl dextran without goat anti-mouse IgG in flow cell 1 and 3 is used as the reference surface. For kinetic analysis, rate equations derived from the 1:1 Langmuir binding model are fitted simultaneously to association and dissociation phases of all eight injections (using global fit analysis) with the use of Biaevaluation 4.0.1 software. Purified antibodies or DVD-Ig are diluted in HEPES-buffered saline for capture across goat anti-mouse IgG specific reaction surfaces. Antibodies or DVD-Ig to be captured as a ligand (25 μg/ml) are injected over reaction matrices at a flow rate of 5 μl/min. The association and dissociation rate constants, kₒₙ (M⁻¹s⁻¹) and koff (s⁻¹) are determined under a continuous flow rate of 25 μl/min. Rate constants are derived by making kinetic binding measurements at different antigen concentrations ranging from 10-200 nM. The equilibrium dissociation constant (M) of the reaction between antibodies or DVD-Igs and the target antigen is then calculated from the kinetic rate constants by the following formula: KD=koff/kₒₙ. Binding is recorded as a function of time and kinetic rate constants are calculated.

[3] = target: T3, VEGF (UniProt P15692 27-191, limits assumed); assay: direct bind ELISA, N-terminal VD
T3 construct: bought antigen coated on the ELISA plate

[4] = target: T1, PlGF; assay: direct bind ELISA, C-terminal VD
Protocol: Enzyme Linked Immunosorbent Assays to screen for antibodies that bind a desired target antigen were performed as follows. […] Plates were washed four times with PBS containing 0.02% Tween 20. Plates were blocked by the addition of 300 μL/well blocking solution (non-fat dry milk powder, various retail suppliers, diluted to 2% in PBS) for ½ hour at room temperature. Plates were washed four times after blocking with PBS containing 0.02% Tween 20.
Plates were washed 4 times with PBS containing 0.02% Tween 20.

T2 sequence (P14210 32-728 limits assumed): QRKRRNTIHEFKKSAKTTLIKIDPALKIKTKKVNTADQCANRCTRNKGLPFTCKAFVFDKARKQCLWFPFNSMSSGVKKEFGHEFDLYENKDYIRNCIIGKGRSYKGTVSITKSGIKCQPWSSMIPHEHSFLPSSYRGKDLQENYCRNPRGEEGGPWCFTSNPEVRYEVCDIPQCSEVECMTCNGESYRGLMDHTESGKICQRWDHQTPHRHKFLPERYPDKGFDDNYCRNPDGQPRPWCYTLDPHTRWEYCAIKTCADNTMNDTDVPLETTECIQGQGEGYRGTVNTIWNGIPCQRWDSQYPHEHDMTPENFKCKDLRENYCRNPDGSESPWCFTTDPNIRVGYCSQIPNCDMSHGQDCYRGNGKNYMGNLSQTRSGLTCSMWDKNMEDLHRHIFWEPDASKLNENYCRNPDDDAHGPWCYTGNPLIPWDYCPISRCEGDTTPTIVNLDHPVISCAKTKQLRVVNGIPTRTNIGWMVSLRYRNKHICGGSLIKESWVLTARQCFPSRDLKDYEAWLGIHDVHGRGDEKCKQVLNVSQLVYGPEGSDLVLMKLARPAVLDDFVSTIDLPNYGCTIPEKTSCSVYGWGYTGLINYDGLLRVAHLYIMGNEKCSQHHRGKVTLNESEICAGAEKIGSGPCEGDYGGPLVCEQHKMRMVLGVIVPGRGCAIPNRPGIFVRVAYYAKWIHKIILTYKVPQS
Chain of recombinant human VEGF165 (P15692 other isoform, or with tags, fused parts or gaps limits assumed): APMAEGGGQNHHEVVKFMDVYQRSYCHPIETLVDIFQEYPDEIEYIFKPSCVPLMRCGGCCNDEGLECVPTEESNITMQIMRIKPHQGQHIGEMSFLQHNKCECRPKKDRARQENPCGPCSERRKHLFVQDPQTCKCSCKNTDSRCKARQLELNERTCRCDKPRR
T3 sequence (P15692 other isoform, or with tags, fused parts or gaps limits assumed): as above

Binder | inhibition of HUVEC proliferation (IC50) [1] | Kd [2] | koff [2] | kon [2] | EC50 [3] | EC50 [4]
B1 | 0.45 nM | – | – | – | – | –
B2 | 0.24 nM | – | – | – | – | –
B3 | – | < 0.0284 nM | 0.000284 s⁻¹ | > 1e+07 M⁻¹ s⁻¹ | – | –
B4 | – | 0.0215 nM | 6.55e-05 s⁻¹ | 3.05e+06 M⁻¹ s⁻¹ | – | –
B5 | – | – | – | – | 3.14 nM | 2.84 nM
B6 | – | – | – | – | 17.6 nM | 1.44 nM
